Laboratory results published in patent US20110142812A1 (STC UNM, published 2011).

Experiments:
human FcγRI = target: T1, human FcγRI (human, UniProt P12314 16-292, limits assumed); test: surface plasmon resonance, human FcγR
T1 construct: also called CD64

[1] = target: T2, mouse FcγRI on macrophages (mouse, UniProt P26151 25-404); test: two-color flow cytometry on mouse peritoneal macrophages (FcγRIIb-/-), FITC-2C10 detection
T2 construct: whole, on cells; The receptor is assigned by using macrophages from knockout mice; Other receptors may be present on these cells; also called FcγRI on mouse macrophages (from FcγRIIb-/- mice)
T2 sequence (looked up): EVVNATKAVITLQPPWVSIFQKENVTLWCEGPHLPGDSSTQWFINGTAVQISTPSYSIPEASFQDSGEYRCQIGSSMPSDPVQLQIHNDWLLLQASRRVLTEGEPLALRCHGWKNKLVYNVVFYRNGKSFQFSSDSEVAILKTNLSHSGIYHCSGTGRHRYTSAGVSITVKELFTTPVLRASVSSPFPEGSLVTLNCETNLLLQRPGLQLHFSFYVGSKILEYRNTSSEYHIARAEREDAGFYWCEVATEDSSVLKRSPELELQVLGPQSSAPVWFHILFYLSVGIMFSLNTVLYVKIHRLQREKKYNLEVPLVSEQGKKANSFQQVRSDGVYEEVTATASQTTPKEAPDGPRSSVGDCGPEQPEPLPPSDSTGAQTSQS

T1 sequence (P12314 16-292 limits assumed): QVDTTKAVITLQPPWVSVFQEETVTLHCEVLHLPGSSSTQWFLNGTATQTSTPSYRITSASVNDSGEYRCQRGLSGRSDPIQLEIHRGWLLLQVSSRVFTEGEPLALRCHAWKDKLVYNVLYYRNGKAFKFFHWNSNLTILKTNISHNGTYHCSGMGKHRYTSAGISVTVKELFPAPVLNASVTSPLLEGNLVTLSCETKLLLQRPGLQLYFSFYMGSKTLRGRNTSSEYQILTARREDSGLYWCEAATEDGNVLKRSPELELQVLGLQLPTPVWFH

binding result (human FcγRI): binds | binding result [1]: binds
B1: Y175L CRP (recombinant mutant C-reactive protein in which tyrosine 175 is replaced by leucine) (ligand)
chain: QTDMSRKAFVFPKESDTSYVSLKAPLTKPLKAFTVCLHFYTELSSTRGYSIFSYATKRQDNEILIFWSKDIGYSFTVGGSEILFEVPEVTVAPVHICTSWESASGIVEFWVDGKPRVRKSLKKGYTVGAEASIILGQEQDSFGGNFEGSQSLVGDIGNVNMWDFVLSPDEINTILLGGPFSPNVLNWRALKYEVQGEVFTKPQLWP
notes: also called CRP mutant Y175L; recombinant mutant CRP (Y175L)
